US20150344570A1 (published 2015)

T1: FcgRIIa H (human, UniProt P12318 34-217)
T1 construct: extracellular domain; also called FcγRIIa H; FcγRIIa type H
T1 sequence (looked up): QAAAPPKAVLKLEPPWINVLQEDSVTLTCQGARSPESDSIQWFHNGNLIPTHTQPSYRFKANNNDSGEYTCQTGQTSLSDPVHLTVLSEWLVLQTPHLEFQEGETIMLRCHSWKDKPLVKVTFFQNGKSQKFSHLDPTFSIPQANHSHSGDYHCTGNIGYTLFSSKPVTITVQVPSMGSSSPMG

T2: FcgRIIa R (human, UniProt P12318 34-217)
T2 construct: extracellular domain; also called FcγRIIa R; FcγRIIa type R
T2 sequence (looked up): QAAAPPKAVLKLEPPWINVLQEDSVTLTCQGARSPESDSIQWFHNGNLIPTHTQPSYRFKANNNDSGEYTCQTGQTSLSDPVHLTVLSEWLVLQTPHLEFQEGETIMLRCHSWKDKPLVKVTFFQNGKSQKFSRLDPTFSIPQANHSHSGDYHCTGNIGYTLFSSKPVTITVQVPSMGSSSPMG

T3: FcgRIIb (human, UniProt P31994 43-217)
T3 construct: extracellular domain; Soluble extracellular domain with C-terminal His tag, expressed in FreeStyle293 cells; also called FcγRIIb; 2b; not shown: His tag at the C terminus
T3 sequence (looked up): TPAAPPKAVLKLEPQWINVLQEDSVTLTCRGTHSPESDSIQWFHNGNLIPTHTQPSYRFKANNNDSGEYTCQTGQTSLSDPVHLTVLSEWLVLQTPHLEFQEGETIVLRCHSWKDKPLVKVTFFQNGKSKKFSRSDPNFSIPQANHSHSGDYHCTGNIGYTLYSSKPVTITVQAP

T4: FcgRIIaR (human, UniProt P12318 34-217)
T4 construct: extracellular domain; Soluble extracellular domain with C-terminal His tag, expressed in FreeStyle293 cells; also called FcγRIIa R; FcgRIIa type R; not shown: His tag at the C terminus
T4 sequence (looked up): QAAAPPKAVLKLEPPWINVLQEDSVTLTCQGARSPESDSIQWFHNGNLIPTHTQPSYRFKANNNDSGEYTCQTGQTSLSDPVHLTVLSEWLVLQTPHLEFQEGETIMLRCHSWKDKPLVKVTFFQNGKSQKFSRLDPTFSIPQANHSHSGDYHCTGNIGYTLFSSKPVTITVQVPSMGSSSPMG

T5: FcgRIIaH (human, UniProt P12318 34-217)
T5 construct: extracellular domain; Soluble extracellular domain with C-terminal His tag, expressed in FreeStyle293 cells; also called FcγRIIa H; FcgRIIa type H; not shown: His tag at the C terminus
T5 sequence (looked up): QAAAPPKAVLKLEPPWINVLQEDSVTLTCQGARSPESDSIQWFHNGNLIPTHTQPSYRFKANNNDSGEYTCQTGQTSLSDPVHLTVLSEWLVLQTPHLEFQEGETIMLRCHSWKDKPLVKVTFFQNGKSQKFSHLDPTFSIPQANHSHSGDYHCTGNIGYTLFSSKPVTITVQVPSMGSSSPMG

B1: H240-Kn067/H240-Hl136/L73-k0 (antibody, human IgG1, kappa)
heavy 1: QDQLVQSGAEVKKPGASVKVSCKASGFNIKDTYIQWVRQAPGQGLEWMGRIDPLRKQTKYREKFEGRVTITADTSTNTAYMELSSLRSEDTAVYYCVRSGREFDYWGQGTLVTVSSASTKGPSVFPLAPSSKSTSGGTAALGCLVKDYFPEPVTVSWNSGALTSGVHTFPAVLQSSGLYSLSSVVTVPSSSLGTQTYICNVNHKPSNTKVDKKVEPKSCDKTHTCPPCPAPEYYWGPSVFLFPPKPKDTLMISRTPEVTCVVVDVSDEDPEVKFNWYVDGVEVHNAKTKPREEQYNATYRVVSVLTVLHQDWLNGKEYKCKVSNKDLPAPIEKTISKAKGQPREPQVCTLPPSRDELTKNQVSLWCLVKGFYPSDIAVEWESNGQPENNYKTTPPVLDSDGSFFLYSKLTVDKSRWQQGNVFSCSVMHEALHNHYTQKSLSLSP
heavy 2: QDQLVQSGAEVKKPGASVKVSCKASGFNIKDTYIQWVRQAPGQGLEWMGRIDPLRKQTKYREKFEGRVTITADTSTNTAYMELSSLRSEDTAVYYCVRSGREFDYWGQGTLVTVSSASTKGPSVFPLAPSSKSTSGGTAALGCLVKDYFPEPVTVSWNSGALTSGVHTFPAVLQSSGLYSLSSVVTVPSSSLGTQTYICNVNHKPSNTKVDKKVEPKSCDKTHTCPPCPAPEYYWGPSVFLFPPKPKDTLMISRTPEVTCVVVDVSDEDPEVKFNWYVDGVEVHNAKTKPREEQYNATYRVVSVLTVLHQDWLNGKEYKCKVSNKDLPAPIEKTISKAKGQPREPQVYTLPPSRCELTKNQVSLSCAVKGFYPSDIAVEWESNGQPENNYKTTPPVLDSDGSFFLVSKLTVDKSRWQQGNVFSCSVMHEALHNHYTQKSLSLSP
light: DIQMTQSPSSLSASVGDRVTITCRASQDIHKYIAWYQQKPGQAPRLLIQYTSTLQPGVPSRFSGSGSGTDYTFTISSLQPEDIATYYCLQYEQLRTFGGGTKVEIKRTVAAPSVFIFPPSDEQLKSGTASVVCLLNNFYPREAKVQWKVDNALQSGNSQESVTEQDSKDSTYSLSSTLTLSKADYEKHKVYACEVTHQGLSSPVTKSFNRGEC
notes: Called homodimerized: both H chains have L234Y/L235Y/G236W/H268D/S298A/A327D
B2: H240-Kn133/H240-Hl068/L73-k0 (antibody, human IgG1, kappa)
heavy 1: QDQLVQSGAEVKKPGASVKVSCKASGFNIKDTYIQWVRQAPGQGLEWMGRIDPLRKQTKYREKFEGRVTITADTSTNTAYMELSSLRSEDTAVYYCVRSGREFDYWGQGTLVTVSSASTKGPSVFPLAPSSKSTSGGTAALGCLVKDYFPEPVTVSWNSGALTSGVHTFPAVLQSSGLYSLSSVVTVPSSSLGTQTYICNVNHKPSNTKVDKKVEPKSCDKTHTCPPCPAPELLGGPSVFLFPPKPKDTLMISRTPEVTCVVVDVSHEEPEVKFNWYVDGVEVHNAKTKPREEQYNSTYRVVSVLTVLHQDWLNGKEYKCKVSNDALPKPIEETISKAKGQPREPQVCTLPPSRDELTKNQVSLWCLVKGFYPSDIAVEWESNGQPENNYKTTPPVLDSDGSFFLYSKLTVDKSRWQQGNVFSCSVMHEALHNHYTQKSLSLSP
heavy 2: QDQLVQSGAEVKKPGASVKVSCKASGFNIKDTYIQWVRQAPGQGLEWMGRIDPLRKQTKYREKFEGRVTITADTSTNTAYMELSSLRSEDTAVYYCVRSGREFDYWGQGTLVTVSSASTKGPSVFPLAPSSKSTSGGTAALGCLVKDYFPEPVTVSWNSGALTSGVHTFPAVLQSSGLYSLSSVVTVPSSSLGTQTYICNVNHKPSNTKVDKKVEPKSCDKTHTCPPCPAPELLGGPSVFLFPPKPKDTLMISRTPEVTCVVVDVSHEEPEVKFNWYVDGVEVHNAKTKPREEQYNSTYRVVSVLTVLHQDWLNGKEYKCKVSNDALPKPIEETISKAKGQPREPQVYTLPPSRCELTKNQVSLSCAVKGFYPSDIAVEWESNGQPENNYKTTPPVLDSDGSFFLVSKLTVDKSRWQQGNVFSCSVMHEALHNHYTQKSLSLSP
light: DIQMTQSPSSLSASVGDRVTITCRASQDIHKYIAWYQQKPGQAPRLLIQYTSTLQPGVPSRFSGSGSGTDYTFTISSLQPEDIATYYCLQYEQLRTFGGGTKVEIKRTVAAPSVFIFPPSDEQLKSGTASVVCLLNNFYPREAKVQWKVDNALQSGNSQESVTEQDSKDSTYSLSSTLTLSKADYEKHKVYACEVTHQGLSSPVTKSFNRGEC
notes: Called homodimerized: both H chains have D270E/K326D/A330K/K334E
B3: IL6R-BP253/IL6R-L (antibody, human IgG1, kappa)
heavy: QVQLQESGPGLVKPSETLSLTCAVSGHSISHDHAWSWVRQPPGEGLEWIGFISYSGITNYNPSLQGRVTISRDNSKNTLYLQMNSLRAEDTAVYYCARSLARTTAMDYWGEGTLVTVSSASTKGPSVFPLAPSSKSTSGGTAALGCLVKDYFPEPVTVSWNSGALTSGVHTFPAVLQSSGLYSLSSVVTVPSSSLGTQTYICNVNHKPSNTKVDKKVEPKSCDKTHTCPPCPAPELLGGPSVFLFPPKPKDTLMISRTPEVTCVVVDVEHEDPEVKFNWYVDGVEVHNAKTKPREEQYNSTYRVVSVLTVLHQDWLNGKEYKCKVSNKAFPAPIEKTISKAKGQPREPQVYTLPPSRDELTKNQVSLTCLVKGFYPSDIAVEWESNGQPENNYKTTPPVLDSDGSFFLYSKLTVDKSRWQQGNVFSCSVMHEALHNHYTQESLSLSP
light: not shown
notes: Homodimerized antibody
B4: IL6R-AP002/IL6R-BP256/IL6R-L (antibody, human IgG1, kappa)
heavy 1: QVQLQESGPGLVKPSETLSLTCAVSGHSISHDHAWSWVRQPPGEGLEWIGFISYSGITNYNPSLQGRVTISRDNSKNTLYLQMNSLRAEDTAVYYCARSLARTTAMDYWGEGTLVTVSSASTKGPSVFPLAPSSKSTSGGTAALGCLVKDYFPEPVTVSWNSGALTSGVHTFPAVLQSSGLYSLSSVVTVPSSSLGTQTYICNVNHKPSNTKVDKKVEPKSCDKTHTCPPCPAPDLLGDDSVFLFPPKPKDTLMISRTPEVTCVVVDVSDEDGEVKFNWYVDGVEVHNAKTKPREEQYNSTYRVVSVLTVLHQDWLNGKEYKCKVSNKALPRPIEKTISKAKGQPREPQVYTLPPSRKELTKNQVSLTCLVKGFYPSDIAVEWESNGQPENNYKTTPPVLDSDGSFFLYSKLTVDKSRWQQGNVFSCSVMHEALHNRYTQKSLSLSP
heavy 2: QVQLQESGPGLVKPSETLSLTCAVSGHSISHDHAWSWVRQPPGEGLEWIGFISYSGITNYNPSLQGRVTISRDNSKNTLYLQMNSLRAEDTAVYYCARSLARTTAMDYWGEGTLVTVSSASTKGPSVFPLAPSSKSTSGGTAALGCLVKDYFPEPVTVSWNSGALTSGVHTFPAVLQSSGLYSLSSVVTVPSSSLGTQTYICNVNHKPSNTKVDKKVEPKSCDKTHTCPPCPAPDLLGDDDVFLFPPKPKDTLMISRTPEVTCVVVDVSDEDGEVKFNWYVDGVEVHNAKTKPREEQYNSTYRVVSVLTVLHQDWLNGKEYKCKVSNKALPRPIEKTISKAKGQPREPQVYTLPPSRDELTKNQVSLTCLVKGFYPSDIAVEWESNGQPENNYKTTPPVLDSDGSFFLYSKLTVDKSRWQQGNVFSCSVMHEALHNHYTQESLSLSP
light: not shown
notes: Heterodimerized antibody (two different H chains, same variable region), S239D in one H chain only

Assays:
[1] = biological target: T1, FcgRIIa H; experiment: SPR (Biacore), antibody captured, FcgR as analyte
Protocol: (§1) Then, H240-Hl136 (SEQ ID NO: 97) resulting from introduction of L234Y/L235Y/G236W/H268D/S298A/A327D into H240-Hl033 and H240-Kn133 (SEQ ID NO: 98) resulting from introduction of D270E/K326D/A330K/K334E into H240-Kn033 were constructed according to the method described in Reference Example 1.
(§2) Analysis of interaction between objective antibody and the FcγR was carried out using Biacore T100 (GE Healthcare), Biacore T200, Biacore A100, and Biacore 4000. HBS-EP+ (GE Healthcare) was used as the running buffer, and the measurement temperature was set to 25° C. Chips produced by immobilizing the antigen peptide by the amine coupling method to a Series S sensor Chip CM5 (GE Healthcare), chips produced by allowing preliminarily biotinylated antigen peptides to interact with and immobilize onto a Series S Sensor Chip SA (certified) (GE Healthcare), chips produced by immobilizing Protein L (ACTIGEN, BioVision) to Series S Sencor Chip CM5 (GE Healthcare), or chips produced by immobilizing Protein A/G (Thermo Scientific) to Series S Sencor Chip CM5 (GE Healthcare) were used. Antibodies of interest were captured onto these chips, and allowed to interact to each FcγR diluted with running buffer.

[2] = biological target: T2, FcgRIIa R; experiment: SPR (Biacore), antibody captured, FcgR as analyte
Protocol: as §1, §2

[3] = biological target: T6, FcgRIIIa V (human, UniProt P08637 17-208); experiment: SPR (Biacore), antibody captured, FcgR as analyte
T6 construct: extracellular domain; polymorphic site made after J. Clin. Invest; also called FcγRIIIa V
Protocol: as §1, §2

[4] = biological target: T7, FcgRIIIa F (human, UniProt P08637 17-208); experiment: SPR (Biacore), antibody captured, FcgR as analyte
T7 construct: extracellular domain; polymorphic site made after J. Clin. Invest; also called FcγRIIIa F
Protocol: as §1, §2

[5] = biological target: T3, FcgRIIb; experiment: SPR (Biacore), antibody captured on chip, FcgR extracellular domain as analyte
[6] = biological target: T4, FcgRIIaR; experiment: as above
[7] = biological target: T5, FcgRIIaH; experiment: as above
[8] = biological target: T3, FcgRIIb; experiment: SPR (Biacore); KD of the variant for FcgRIIaR divided by its KD for FcgRIIb

T7 sequence (P08637 17-208): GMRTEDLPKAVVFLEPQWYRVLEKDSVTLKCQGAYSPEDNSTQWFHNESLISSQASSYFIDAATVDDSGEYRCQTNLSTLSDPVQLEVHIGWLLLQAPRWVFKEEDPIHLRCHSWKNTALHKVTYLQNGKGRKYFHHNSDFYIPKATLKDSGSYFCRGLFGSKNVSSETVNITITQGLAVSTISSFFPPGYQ
T6 sequence (P08637 17-208 F176V limits assumed): as the sequence (P08637 17-208) above, with F160V counted along it

Binder	Kd [1] [nM]	Kd [2] [nM]	Kd [3] [nM]	Kd [4] [nM]	Relative KD (KD of IL6R-B3/IL6R-L divided by KD of the variant) [5]	Relative KD (KD of IL6R-B3/IL6R-L divided by KD of the variant) [6]	Relative KD (KD of IL6R-B3/IL6R-L divided by KD of the variant) [7]	KD(IIaR)/KD(IIb) [8]
B1	2100	950	340	960				
B2	160	450	14	120				
B3					349	480	0.9	0.3
B4					752	7.7	0.2	34.3
